{"source": "paper PMC10362042", "about": "(Nature Communications, 2023)", "binders": {"B1": {"name": "Cat ACE2 (receptor)", "chain": "QSTTEELAKTFLEKFNHEAEELSYQSSLASWNYNTNITDENVQKMNEAGAKWSAFYEEQSKLAKTYPLAEIHNTTVKRQLQALQQSGSSVLSADKSQRLNTILNAMSTIYSTGKACNPNNPQECLLLEPGLDDIMENSKDYNERLWAWEGWRAEVGKQLRPLYEEYVALKNEMARANNYEDYGDYWRGDYEEEWTDGYNYSRSQLIKDVEHTFTQIKPLYQHLHAYVRAKLMDTYPSRISPTGCLPAHLLGDMWGRFWTNLYPLTVPFGQKPNIDVTDAMVNQSWDARRIFKEAEKFFVSVGLPNMTQGFWENSMLTEPGDSRKVVCHPTAWDLGKGDFRIKMCTKVTMDDFLTAHHEMGHIQYDMAYAVQPFLLRNGANEGFHEAVGEIMSLSAATPNHLKTIGLLSPGFSEDSETEINFLLKQALTIVGTLPFTYMLEKWRWMVFKGEIPKEQWMQKWWEMKREIVGVVEPVPHDETYCDPASLFHVANDYSFIRYYTRTIYQFQFQEALCRIAKHEGPLHKCDISNSSEAGKKLLQMLTLGKSKPWTLALEHVVGEKKMNVTPLLKYFEPLFTWLKEQNRNSFVGWNTDWRPYADQSIKVRISLKSALGDEAYEWNDNEMYLFRSSVAYAMREYFSKVKNQTIPFVEDNVWVSNLKPRISFNFFVTASKNVSDVIPRSEVEEAIRMSRSRINDAFRLDDNSLEFLGIQPTLSPPYQPPVT"}, "B2": {"name": "Golden Hamster ACE2 (residues 1-615) (receptor)", "chain": "QSIIEEQAKTFLDKFNQEAEDLSYQSALASWNYNTNITEENAQKMNEAAAKWSAFYEEQSKLAKNYSLQEVQNLTIKRQLQALQQSGSSALSADKNKQLNTILNTMSTIYSTGKVCNPKNPQECLLLEPGLDDIMATSTDYNERLWAWEGWRAEVGKQLRPLYEEYVVLKNEMARANNYEDYGDYWRGDYEAEGADGYNYNGNQLIEDVERTFKEIKPLYEQLHAYVRTKLMNTYPSYISPTGCLPAHLLGDMWGRFWTNLYPLTVPFGQKPNIDVTDAMVNQGWNAERIFKEAEKFFVSVGLPYMTQGFWENSMLTDPGDDRKVVCHPTAWDLGKGDFRIKMCTKVTMDNFLTAHHEMGHIQYDMAYATQPFLLRNGANEGFHEAVGEIMSLSAATPEHLKSIGLLPSDFQEDNETEINFLLKQALTIVGTLPFTYMLEKWRWMVFKGDIPKEQWMEKWWEMKREIVGVVEPLPHDETYCDPAALFHVSNDYSFIRYYTRTIYQFQFQEALCQAAKHDGPLHKCDISNSTEAGQKLLNMLRLGKSEPWTLALENVVGARNMDVRPLLNYFEPLSVWLKEQNKNSFVGWNTDWSPYAD"}, "B3": {"name": "Horse ACE2 (receptor)", "chain": "QSTTEDLAKTFLEKFNSEAEELSHQSSLASWSYNTNITDENVQKMNEAGARWSAFYEEQCKLAKTYPLEEIQNLTVKRQLQALQQSGSSVLSADKSKRLNEILNTMSTIYSTGKVCNPSNPQECLLLEPGLDAIMENSKDYNQRLWAWEGWRSEVGKQLRPLYEEYVVLKNEMARANNYEDYGDYWRGDYEAEGPSGYDYSRDQLIEDVERTFAEIKPLYEHLHAYVRAKLMDTYPSHINPTGCLPAHLLGDMWGRFWTNLYSLTVPFGQKPNIDVTDAMVDQSWDAKRIFEEAEKFFVSVGLPNMTQGFWENSMLTEPGDGRKVVCHPTAWDLGKGDFRIKMCTKVTMDDFLTAHHEMGHIQYDMAYAVQPYLLRNGANEGFHEAVGEIMSLSAATPNHLKAIGLLPPDFYEDSETEINFLLKQALTIVGTLPFTYMLEKWRWMVFKGEIPKEEWMKKWWEMKREIVGVVEPVPHDETYCDPAALFHVANDYSFIRYYTRTIYQFQFQEALCQTAKHEGPLHKCDISNSTEAGQKLLQMLSLGKSEPWTLALERIVGVKNMDVRPLLNYFEPLFTWLKDQNKNSFVGWSTNWSPYAD"}}, "assay_in_all_cases": "SPR", "details_in_all_cases": "both partners purified", "key": {"[1]": {"target": "SARS-CoV-2 Omicron BA.1 RBD (residues 319-541) (SARS-CoV-2, UniProt P0DTC2 319-541)"}, "[2]": {"target": "SARS-CoV-2 Omicron BA.2 RBD (residues 319-541) (SARS-CoV-2, UniProt P0DTC2 319-541)"}, "[3]": {"target": "SARS-CoV-2 Omicron BA.4/5 RBD (residues 319-541) (SARS-CoV-2, UniProt P0DTC2 319-541)"}, "[4]": {"target": "T1, SARS-CoV-2 Omicron BA.1 RBD (residues 319-541) (SARS-CoV-2, UniProt P0DTC2 319-541)", "remark": "listed apart in the source"}, "[5]": {"target": "T2, SARS-CoV-2 Omicron BA.2 RBD (residues 319-541) (SARS-CoV-2, UniProt P0DTC2 319-541)", "remark": "listed apart in the source"}, "[6]": {"target": "T3, SARS-CoV-2 Omicron BA.4/5 RBD (residues 319-541) (SARS-CoV-2, UniProt P0DTC2 319-541)", "remark": "listed apart in the source"}, "[7]": {"target": "T1, SARS-CoV-2 Omicron BA.1 RBD (residues …)", "remark": "listed apart in the source"}, "[8]": {"target": "T2, SARS-CoV-2 Omicron BA.2 RBD (residues …)", "remark": "listed apart in the source"}, "[9]": {"target": "T3, SARS-CoV-2 Omicron BA.4/5 RBD (residues …)", "remark": "listed apart in the source"}}, "note": "Values joined by “and” are separate entries in the source; they are usually repeats but may differ in a detail not shown here. Identical values can stand only once."}
{"binder": "B1", "values": [{"measurement": "Kd", "setting": "[1]", "value": "60.8 nM and 78.5 nM and 65.2 nM and 68.2 nM"}, {"measurement": "kon", "setting": "[1]", "value": "2.8e+06 M⁻¹ s⁻¹ and 4.2e+06 M⁻¹ s⁻¹ and 2e+06 M⁻¹ s⁻¹"}, {"measurement": "Kd", "setting": "[2]", "value": "133 nM and 128 nM and 158 nM and 140 nM"}, {"measurement": "koff", "setting": "[2]", "value": "0.014 s⁻¹ and 0.036 s⁻¹ and 0.029 s⁻¹"}, {"measurement": "kon", "setting": "[2]", "value": "180000 M⁻¹ s⁻¹ and 200000 M⁻¹ s⁻¹ and 100000 M⁻¹ s⁻¹"}, {"measurement": "Kd", "setting": "[3]", "value": "149 nM (2×) and 166 nM and 155 nM"}, {"measurement": "koff", "setting": "[3]", "value": "0.069 s⁻¹ and 0.071 s⁻¹ and 0.079 s⁻¹"}, {"measurement": "kon", "setting": "[3]", "value": "470000 M⁻¹ s⁻¹ and 570000 M⁻¹ s⁻¹ and 380000 M⁻¹ s⁻¹"}]}
{"binder": "B2", "values": [{"measurement": "Kd", "setting": "[4]", "value": "277 nM and 230 nM and 296 nM and 268 nM"}, {"measurement": "Kd", "setting": "[5]", "value": "174 nM and 106 nM and 167 nM and 149 nM"}, {"measurement": "koff", "setting": "[5]", "value": "0.86 s⁻¹ and 1 s⁻¹ and 0.75 s⁻¹"}, {"measurement": "kon", "setting": "[5]", "value": "2.5e+06 M⁻¹ s⁻¹ and 3e+06 M⁻¹ s⁻¹ and 2e+06 M⁻¹ s⁻¹"}, {"measurement": "Kd", "setting": "[6]", "value": "118 nM and 117 nM and 166 nM and 133 nM"}, {"measurement": "kon", "setting": "[6]", "value": "26000 M⁻¹ s⁻¹ and 13000 M⁻¹ s⁻¹ and 16000 M⁻¹ s⁻¹"}]}
{"binder": "B3", "values": [{"measurement": "Kd", "setting": "[7]", "value": "7440 nM and 7790 nM and 8720 nM and 7980 nM"}, {"measurement": "koff", "setting": "[7]", "value": "0.23 s⁻¹ and 0.25 s⁻¹ and 0.26 s⁻¹"}, {"measurement": "kon", "setting": "[7]", "value": "30000 M⁻¹ s⁻¹ and 32000 M⁻¹ s⁻¹"}, {"measurement": "Kd", "setting": "[8]", "value": "38200 nM and 38800 nM and 44600 nM and 40500 nM"}, {"measurement": "koff", "setting": "[8]", "value": "0.38 s⁻¹ and 0.37 s⁻¹"}, {"measurement": "kon", "setting": "[8]", "value": "9800 M⁻¹ s⁻¹ and 9600 M⁻¹ s⁻¹ and 8400 M⁻¹ s⁻¹"}, {"measurement": "Kd", "setting": "[9]", "value": "455 nM and 445 nM and 459 nM and 453 nM"}, {"measurement": "koff", "setting": "[9]", "value": "0.02 s⁻¹ and 0.021 s⁻¹"}, {"measurement": "kon", "setting": "[9]", "value": "45000 M⁻¹ s⁻¹ and 46000 M⁻¹ s⁻¹"}]}
